IC50 data for five substances are collected here from article PMC8863895.

One assay deals with C3b (human). Briefly: ELISA; decay acceleration assay: 250 ng C3b immobilised on Maxisorp; C3bBb formed with 400 ng Factor B and 25 ng Factor D, 2 h 37 °C; increasing concentrations of regulator, 40 min 37 °C; Bb remaining bound to C3b detected with anti-factor B polyclonal antibody.
Assay [1] concerns the target complement C5. The assay can be described thus: ELISA; 5 µg/mL C3b or C5 immobilised on Maxisorp plates at 4 °C overnight; increasing concentrations of regulator (0.195-50 nM) in sample buffer (2% BSA in TBS, 0.05% Tween-20); detected with anti-His-tag antibodies; absorbance normalised to the highest concentration; IC50 from a 4PL nonlinear regression. (In an ELISA, binding on a coated surface is turned into a signal by an enzyme label.)

The target in assay [2] is complement C3b (UniProt P01024). The assay is described as above.
The target of assay [3] is complement C5. The assay is described as above. This is another data set of the same source.
In assay [4] the target is complement C3b (UniProt P01024). The assay is described as above. The source holds these as a separate data set.

As a reminder, the IC50 is the concentration needed to halve the response being measured. A low value points to higher potency.

Where two headings read alike, the source gives them in different places.

Chain of human factor H, plasma-derived (hFH) (P08603 19-1231): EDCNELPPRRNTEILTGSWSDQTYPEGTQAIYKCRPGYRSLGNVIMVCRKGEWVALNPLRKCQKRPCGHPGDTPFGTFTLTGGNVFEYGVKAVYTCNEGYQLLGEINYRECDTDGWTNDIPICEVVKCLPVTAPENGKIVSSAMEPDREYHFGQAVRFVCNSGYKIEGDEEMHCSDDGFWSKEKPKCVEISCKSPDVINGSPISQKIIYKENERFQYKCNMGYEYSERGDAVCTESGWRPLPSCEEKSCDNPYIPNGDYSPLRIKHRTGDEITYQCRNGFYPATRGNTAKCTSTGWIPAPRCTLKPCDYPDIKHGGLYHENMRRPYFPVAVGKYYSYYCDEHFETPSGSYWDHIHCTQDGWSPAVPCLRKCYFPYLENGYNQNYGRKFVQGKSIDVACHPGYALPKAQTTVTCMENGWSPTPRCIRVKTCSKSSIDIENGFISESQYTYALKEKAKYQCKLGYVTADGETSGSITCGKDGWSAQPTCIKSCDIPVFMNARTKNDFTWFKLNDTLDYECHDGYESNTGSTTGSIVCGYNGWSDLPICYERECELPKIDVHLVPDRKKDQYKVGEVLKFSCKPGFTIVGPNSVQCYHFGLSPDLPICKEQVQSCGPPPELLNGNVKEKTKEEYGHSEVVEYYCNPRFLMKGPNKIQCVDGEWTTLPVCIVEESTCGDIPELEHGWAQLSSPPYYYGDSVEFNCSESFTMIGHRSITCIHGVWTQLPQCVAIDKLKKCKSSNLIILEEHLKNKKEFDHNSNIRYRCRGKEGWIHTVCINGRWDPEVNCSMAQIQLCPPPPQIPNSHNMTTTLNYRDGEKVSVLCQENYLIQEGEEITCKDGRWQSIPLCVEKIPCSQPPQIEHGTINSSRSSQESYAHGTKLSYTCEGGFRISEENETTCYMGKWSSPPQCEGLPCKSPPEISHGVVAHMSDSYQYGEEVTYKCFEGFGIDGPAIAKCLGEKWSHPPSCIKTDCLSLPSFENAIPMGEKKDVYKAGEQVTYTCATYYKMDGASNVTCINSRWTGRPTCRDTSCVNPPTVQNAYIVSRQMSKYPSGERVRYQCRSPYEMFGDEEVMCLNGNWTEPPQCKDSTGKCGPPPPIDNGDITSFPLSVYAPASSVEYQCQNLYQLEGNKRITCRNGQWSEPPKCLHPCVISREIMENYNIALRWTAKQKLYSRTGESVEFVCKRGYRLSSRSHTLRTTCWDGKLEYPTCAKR

In the assay with C3b (human), “MFHR1^I62 (FHR1_(1-2):FH1-4:FH_(19-20), isoleucine at position 193 = position 62 of factor H) (from UniProt Q03591 19-143; P08603 18-264; P08603 1107-1231)” came in with an IC50 of 7.8 nM. Consider “MFHR1^I62 (FHR1_(1-2):FH1-4:FH_(19-20), variant with isoleucine at position 62 of factor H)”, for which the IC50 with complement C5 [1] is 26.8 nM; with complement C3b [2], 4.7 nM; in the assay with complement C5 [3] it was 52.5 nM; in the assay with complement C3b [4], 16.1 nM.

With “MFHR1^V62 (FHR1_(1-2):FH1-4:FH_(19-20)) (from UniProt Q03591 19-143; P08603 18-264; P08603 1107-1231)”, the IC50 in the assay with C3b (human) came out at 9.4 nM. As to “MFHR1^V62 (FHR1_(1-2):FH1-4:FH_(19-20), valine at position 62 of factor H)”, the IC50 with complement C5 [1] is 26.8 nM; with complement C3b [2] it was 6.32 nM.

Consider “human factor H, plasma-derived (hFH) (from UniProt P08603 19-1231) (natural protein)”, for which the IC50 with C3b (human) is 3.8 nM.
